From US20230136252A1 (NANJING LEGEND BIOTECH, published 2023)

T1: recombinant human GPC2-His protein (human, UniProt Q8N158 24-554, limits assumed)
T1 construct: Bought protein; The SPR paragraph gives no catalogue number for GPC2-His; also called recombinant Human Glypican 2 Protein; recombinant human GPC2 protein; not shown: His tag
T1 sequence (looked up): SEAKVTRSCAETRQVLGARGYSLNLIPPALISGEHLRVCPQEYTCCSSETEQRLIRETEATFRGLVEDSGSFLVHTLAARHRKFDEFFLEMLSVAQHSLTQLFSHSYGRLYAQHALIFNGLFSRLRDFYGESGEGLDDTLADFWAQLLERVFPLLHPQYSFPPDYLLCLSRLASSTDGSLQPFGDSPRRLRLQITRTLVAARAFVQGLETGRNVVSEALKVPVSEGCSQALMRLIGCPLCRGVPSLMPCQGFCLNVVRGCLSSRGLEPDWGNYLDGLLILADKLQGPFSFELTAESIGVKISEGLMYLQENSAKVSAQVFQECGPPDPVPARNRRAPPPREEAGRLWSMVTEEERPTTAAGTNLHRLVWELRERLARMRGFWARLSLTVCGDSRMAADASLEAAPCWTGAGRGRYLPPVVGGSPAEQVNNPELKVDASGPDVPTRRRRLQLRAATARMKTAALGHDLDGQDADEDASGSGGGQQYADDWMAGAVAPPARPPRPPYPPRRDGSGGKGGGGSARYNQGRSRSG

T2: recombinant human GPC5-His (human, UniProt P78333 25-551, limits assumed)
T2 construct: Bought protein; also called RD System Cat #2607-G5/CF; not shown: His tag
T2 sequence (looked up): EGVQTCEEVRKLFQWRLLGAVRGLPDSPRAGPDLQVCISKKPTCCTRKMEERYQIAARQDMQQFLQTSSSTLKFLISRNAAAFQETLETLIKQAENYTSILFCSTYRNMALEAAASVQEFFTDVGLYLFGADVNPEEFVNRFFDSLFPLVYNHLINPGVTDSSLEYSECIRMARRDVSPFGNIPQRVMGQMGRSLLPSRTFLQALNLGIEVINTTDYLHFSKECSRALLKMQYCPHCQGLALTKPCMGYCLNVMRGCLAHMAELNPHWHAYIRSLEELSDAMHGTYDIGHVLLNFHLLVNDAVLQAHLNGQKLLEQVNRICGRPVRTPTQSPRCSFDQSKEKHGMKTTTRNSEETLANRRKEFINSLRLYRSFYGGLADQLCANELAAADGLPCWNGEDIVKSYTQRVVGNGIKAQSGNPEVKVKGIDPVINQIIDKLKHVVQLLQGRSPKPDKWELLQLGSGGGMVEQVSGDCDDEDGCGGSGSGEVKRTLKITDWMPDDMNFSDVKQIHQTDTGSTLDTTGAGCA


Tests used:
[1] = target: T1, recombinant human GPC2-His protein; experiment: SPR, Biacore T200, GPC2-His amine-coupled to CM5 chip, VHH-hIgG1Fc as analyte, 1:1 model
Experimental: Each of the exemplary anti-GPC2 VHH sequences was cloned into a vector comprising a human IgG1Fc fragment (hlgG1Fc) sequence to facilitate recombinant expression of anti-GPC2 VHH-hlgG1Fc. Recombinant proteins were obtained and purified for SPR assays. The affinity of each anti-GPC2 VHH-hIgG1Fc for GPC2 was determined by SPR using a BIACORE® T200 analytical system (GE Healthcare). Briefly, recombinant human GPC2-His protein was covalently coupled to a CM5(s) sensor chip using an amine coupling kit. Exemplary VHH-hIgG1Fc proteins were serially diluted in running buffer (10 mM HEPES, 150 mM NaCl, 3 mM EDTA, 0.05% Tween-20, pH 7.4) and injected over the chip cell at a flowrate of 100 μL/min for 100 seconds followed by buffer-only injection for 300 seconds to allow for antibody dissociation. The dissociation […] (KD) were determined using the BIACORE® T200 evaluation software version 3.0 (Langmuir binding, local fit, 1:1 binding model).

[2] = target: T3, recombinant human GPC3-His (human, UniProt P51654 25-559); experiment: ELISA, plate coated with 2 ug/mL rhGPC3-his, VHH-hIgG1Fc detected with HRP goat anti-human IgG, OD450
T3 construct: Bought protein; also called ACRO Cat #GP3-H5223; not shown: His tag
Experimental: (§1) To evaluate the specificity of humanized anti-GPC2 VHH5 to recombinant human GPC2 protein, an ELISA-based binding assay was conducted to determine the differential target proteins binding of anti-GPC2 VHH5. Briefly, microplates were coated with 2 μg/mL recombinant human GPC1-His (RD System, Cat #4519-GP), GPC2-His (RD System, Cat #2304-GP), GPC3-His (ACRO, Cat #GP3-H5223), GPC4-Fc (RD System, Cat #9195-GP), GPC5-His (RD System, Cat #2607-G5/CF), GPC6-His (RD System, Cat #2845-GP) or recombinant mouse GPC2-His (RD System, Cat #2355-GP) proteins. Recombinant human protein coated plates were blocked with skim milk. Serially diluted humanized VHH-hIgG1Fc recombinant antibodies were added to each well of the plates and incubated at 4° C. for 1.5 h. Samples were further labelled with HRP-conjugated goat anti human IgG (H+L) secondary antibody (Genescript, Cat #A00166-1) and signal was developed with 3,3′,5,5′-Tetramethylbenzidine (TMB) substrate according to manufacturer's instruction. For the GPC4, VHH-His recombinant antibodies and anti-His tag secondary antibody (Genescript, Cat #A00612) were added to the GPC4-Fc coated plates instead. Optic density at 450 nm was measured by plate reader.

[3] = target: T2, recombinant human GPC5-His; experiment: ELISA, plate coated with 2 ug/mL rhGPC5-his, VHH-hIgG1Fc detected with HRP goat anti-human IgG, OD450
Experimental: as §1

T3 sequence (P51654 25-559 limits assumed): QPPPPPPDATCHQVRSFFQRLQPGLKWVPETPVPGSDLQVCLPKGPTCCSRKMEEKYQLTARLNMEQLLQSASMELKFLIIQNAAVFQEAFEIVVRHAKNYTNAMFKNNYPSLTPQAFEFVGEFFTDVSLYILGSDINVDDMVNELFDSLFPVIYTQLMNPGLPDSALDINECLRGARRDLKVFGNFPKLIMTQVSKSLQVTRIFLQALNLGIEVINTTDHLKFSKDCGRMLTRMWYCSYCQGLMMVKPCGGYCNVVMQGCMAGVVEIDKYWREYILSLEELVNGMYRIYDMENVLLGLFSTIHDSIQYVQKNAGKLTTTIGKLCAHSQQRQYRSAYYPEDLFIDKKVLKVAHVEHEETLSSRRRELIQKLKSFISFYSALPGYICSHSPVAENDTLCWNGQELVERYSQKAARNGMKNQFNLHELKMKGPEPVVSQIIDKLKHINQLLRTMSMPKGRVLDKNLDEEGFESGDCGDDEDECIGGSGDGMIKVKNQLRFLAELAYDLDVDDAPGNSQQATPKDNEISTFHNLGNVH

Kd [1] [nM] | koff [1] [s⁻¹] | kon [1] [M⁻¹ s⁻¹] | binding result [2] | binding result [3] | Binder
0.27 | 0.00011 | 390000 | no binding (tested: about 300 nM) | no binding (tested: about 300 nM) | AS70950VH6-hIgG1Fc (Fc fusion, also called anti-GPC2 VHH-hIgG1Fc; not shown: human IgG1 Fc fragment (hIgG1Fc)) EVQLVESGGGLVQPGGSLRLSCAISEFTYKNTCVGWFRQAPGKGREGVAAIDSDGNTNYVDSVKGRFTISQDNSKNTVYLQMNSLRAEDTAMYYCAAGAYCGRLLLWIGNYAYWGQGTLVTVSS
0.37 | 0.00019 | 530000 | no binding (tested: about 300 nM) | no binding (tested: about 300 nM) | AS79236VH6-hIgG1Fc (Fc fusion, also called anti-GPC2 VHH-hIgG1Fc; not shown: human IgG1 Fc fragment (hIgG1Fc)) EVQLVESGGGLVQPGGSLRLSCAVSGYTYSSYCMAWFRQAPGKGLEGVASIDAGGRTTYVDSVKGRFTISKDNAKNSLYLQMNSLRAEDTAMYYCAVDVRTRCGGTWDGEAVYFPYWGQGTLVTVSS
0.82 | 0.00017 | 200000 | no binding (tested: about 300 nM) | no binding (tested: about 300 nM) | AS78117VH4-hIgG1Fc (Fc fusion, also called anti-GPC2 VHH-hIgG1Fc; not shown: human IgG1 Fc fragment (hIgG1Fc)) EVQLVESGGGLVQPGGSLRLSCIVSRYTYATYSMAWFRQAPGKGLEGVSGLDSVGATGYAESVKGRFTISRDNSKNTLYLQMNSLRAEDTAVYYCVVDPASAKVTYGSWSTPSYAYWGQGTLVTVSS
